B1: Programmed cell death protein 4 (Homo sapiens), Q53EL6 (parent)
chain: MDVENEQILNVNPADPDNLSDSLFSGDEENAGTEEIKNEINGNWISASSINEARINAKAKRRLRKNSSRDSGRGDSVSDSGSDALRSGLTVPTSPKGRLLDRRSRSGKGRGLPKKGGAGGKGVWGTPGQVYDVEEVDVKDPNYDDDQENCVYETVVLPLDERAFEKTLTPIIQEYFEHGDTNEVAEMLRDLNLGEMKSGVPVLAVSLALEGKASHREMTSKLLSDLCGTVMSTTDVEKSFDKLLKDLPELALDTPRAPQLVGQFIARAVGDGILCNTYIDSYKGTVDCVQARAALDKATVLLSMSKGGKRKDSVWGSGGGQQSVNHLVKEIDMLLKEYLLSGDISEAEHCLKELEVPHFHHELVYEAIIMVLESTGESTFKMILDLLKSLWKSSTITVDQMKRGYERIYNEIPDINLDVPHSYSVLERFVEECFQAGIISKQLRDLCPSRGRKRFVSEGDGGRLKPESY

Variants of: B1
Details: with if4a1_human EIF4A1, P60842
Chain of if4a1_human EIF4A1, P60842 (P60842 whole entry): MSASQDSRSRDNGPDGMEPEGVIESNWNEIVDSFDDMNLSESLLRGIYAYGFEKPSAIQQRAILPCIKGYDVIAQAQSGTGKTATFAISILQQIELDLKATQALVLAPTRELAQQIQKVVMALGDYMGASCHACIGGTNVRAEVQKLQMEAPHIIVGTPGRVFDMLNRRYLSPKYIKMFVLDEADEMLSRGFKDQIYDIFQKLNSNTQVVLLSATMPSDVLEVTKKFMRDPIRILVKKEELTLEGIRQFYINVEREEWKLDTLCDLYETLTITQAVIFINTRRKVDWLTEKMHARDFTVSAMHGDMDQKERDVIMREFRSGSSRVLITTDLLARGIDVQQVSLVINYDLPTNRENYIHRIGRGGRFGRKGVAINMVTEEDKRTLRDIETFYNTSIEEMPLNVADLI

Variant	effect of a mutation on the interaction
MDVENEQILNVNPADPDNLSDSLFSGDEENAGTEEIKNEINGNWISASSINEARINAKAKRRLRKNSSRDSGRGDSVSDSGSDALRSGLTVPTSPKGRLLDRRSRSGKGRGLPKKGGAGGKGVWGTPGQVYDVEEVDVKDPNYDDDQENCVYETVVLPLDERAFEKTLTPIIQEYFEHGDTNEVAEMLRDLNLGEMKSGVPVLAVSLALEGKASHREMTSKLLSDLCGTVMSTTDVEKSFDKLLKDLPELALDTPRAPQLVGQFIARAVGDGILCNTYIDSYKGTVDCVQARAALDKATVLLSMSKGGKRKDSVWGSGGGQQSVNHLVKEIDMLLKEYLLSGDISEAEHCLKELEVPHFHHELVYEAIIMVLESTGESTFKMILDLLKSLWKSSTITVDQMKRGYERIYNEIPDINLAVPHSYSVLERFVEECFQAGIISKQLRDLCPSRGRKRFVSEGDGGRLKPESY [D418A]	decreasing interaction
MDVENEQILNVNPADPDNLSDSLFSGDEENAGTEEIKNEINGNWISASSINEARINAKAKRRLRKNSSRDSGRGDSVSDSGSDALRSGLTVPTSPKGRLLDRRSRSGKGRGLPKKGGAGGKGVWGTPGQVYDVEEVDVKDPNYDDDQENCVYETVVLPLDERAFEKTLTPIIQEYFEHGDTNEVAEMLRDLNLGEMKSGVPVLAVSLALEGKASHREMTSKLLSDLCGTVMSTTDVEKSFDKLLKDLPELALATPRAPQLVGQFIARAVGDGILCNTYIDSYKGTVDCVQARAALDKATVLLSMSKGGKRKDSVWGSGGGQQSVNHLVKEIDMLLKEYLLSGDISEAEHCLKELEVPHFHHELVYEAIIMVLESTGESTFKMILDLLKSLWKSSTITVDQMKRGYERIYNEIPDINLAVPHSYSVLERFVEECFQAGIISKQLRDLCPSRGRKRFVSEGDGGRLKPESY [D253A;D418A]	decreasing interaction
